US12016898B2, “Compositions and uses of antimicrobial materials with tissue-compatible properties” (Amicrobe, Inc., priority 2012, dated 2024)

B1: K100(rac-L)20: synthetic cationic copolypeptide: lysine segment and shorter racemic hydrophobic leucine block (peptide)
chain: KKKKKKKKKKKKKKKKKKKKKKKKKKKKKKKKKKKKKKKKKKKKKKKKKKKKKKKKKKKKKKKKKKKKKKKKKKKKKKKKKKKKKKKKKKKKKKKKKKKKLLLLLLLLLLLLLLLLLLLL
modifications: racemic leucine block; K100(rac-L)20; rac-L (101)..(120)
B2: K100L20: synthetic cationic copolypeptide: lysine segment and leucine segment (peptide)
chain: B1 chain
modifications: K100L20
B3: K100: lysine homopolypeptide (peptide)
chain: KKKKKKKKKKKKKKKKKKKKKKKKKKKKKKKKKKKKKKKKKKKKKKKKKKKKKKKKKKKKKKKKKKKKKKKKKKKKKKKKKKKKKKKKKKKKKKKKKKKK
modifications: K100
notes: lysine homopolypeptide

Legend:
[1] = system: S. epidermidis, P. aeruginosa (pig clinical isolate); test: open-wound porcine treatment model; format: in vivo; conditions: wounds contaminated, treated after 2 hrs, biopsied 4 hrs after treatment
Description: Each wound was contaminated with bacteria (S. epidermidis, P. aeruginosa (pig clinical isolate)). After 2 hrs, wounds were rinsed with saline and treated with 5 mL of test article or water. Test articles: K100(rac-L)20 (SEQ ID NO: 12) at 10, 2, 0.4 mg/mL, 10 mg/mL K100(rac-L)20 (SEQ ID NO: 12) and 30 mg/mL PEG 400 in water, and deionized water as a control. Gauze soaked in test article or water was placed on top of the wounds. Wounds were biopsied at 4 hrs after treatment.
Aqueous compositions that include mixtures of synthetic cationic polypeptides with two different polymers (polyethylene glycol 400 and hydroxyethyl cellulose) were both found to be effective in vivo. As depicted in FIG. 25, K100(rac-L)20 (SEQ ID NO: 12) was effective in an porcine open-wound treatment model alone and in combination with PEG 400. […] The aqueous compositions described herein can be used for any one or more treatments and/or applications, including but not limited to prevention of infections, treatment of infections, treatment for topical anti-infection, treatment for microbial decolonization, wound treatment, surgical site treatment, trauma treatment, burn treatment, treatment of diabetic foot ulcers, eye treatment, treatment of vaginal infections, treatment of urinary tract infections, hand sanitization, for coating prosthetic devices and/or implants, food preservation and solution preservation.

P. aeruginosa biofilms = test: in vitro P. aeruginosa biofilm assay; format: cell-based; conditions: 0.1-20 mg/mL, 24 hour contact time
[2] = texture analysis profile (firmness, work of adhesion); format: physicochemical; conditions: 1% (w/w) polypeptide and 1% (w/w) HEC in water
Text: FIGS. 20A and 20B show A) firmness values for mixtures of 1% solutions of synthetic cationic polypeptides with 1% hydroxyethyl cellulose (HEC, Natrosol HHX) in water (FIG. 20A); and B) work of adhesion values for mixtures of 1% solutions of copolypeptides with 1% hydroxyethyl cellulose (HEC, Natrosol HHX) in water (FIG. 20B).
Values for 1% (w/w) polypeptide in water. b. Values for 1% polypeptide/1% HEC (w/w) in water. c. Interaction parameter: ΔF=Fmix(poly/HEC)−(Fpoly+FHEC). Where Fmix(poly/HEC)=firmness of 1% polypeptide/1% HEC, Fpoly=firmness of 1% polypeptide solution, and FHEC=firmness of 1% HEC (Natrosol HHX) in water. Similar treatment of data was performed for the work of adhesion interaction parameter.
A texture analysis profile has been used to determine the effects of block copolypeptide composition and hydrophobic enantiopurity on the mechanical properties of the block copolypeptide/HEC mixtures (FIGS. 20A and 20B). […] This corresponds to an interaction parameter value of 14.45 mN and an overall increase of over 170% over what would be expected from the additive contributions of the individual components. […] Hydrophobic block length was also shown to be influential.

Row | Molecule | effectiveness in porcine open-wound treatment model [1] | effectiveness against P. aeruginosa biofilms in vitro (P. aeruginosa biofilms) | effect on adhesiveness / work of adhesion of mixing polypeptide with HEC [2] | effect on firmness of mixing polypeptide with HEC [2]
1 | B1 | effective | effective | no effect | no effect
2 | B2 | – | – | antagonistic | increased firmness
3 | B3 | – | – | failed to enhance | failed to enhance
